Results reported in patent publication US20230242662A1 (BIOATLA, published 2023).

T1: huCD46-His (human, UniProt P15529 35-343)
T1 construct: extracellular domain; Immobilised by amine coupling on the SPR chip; It may be the same protein as the ELISA antigen; also called Human CD46-His; human CD46; not shown: His tag
T1 sequence (looked up): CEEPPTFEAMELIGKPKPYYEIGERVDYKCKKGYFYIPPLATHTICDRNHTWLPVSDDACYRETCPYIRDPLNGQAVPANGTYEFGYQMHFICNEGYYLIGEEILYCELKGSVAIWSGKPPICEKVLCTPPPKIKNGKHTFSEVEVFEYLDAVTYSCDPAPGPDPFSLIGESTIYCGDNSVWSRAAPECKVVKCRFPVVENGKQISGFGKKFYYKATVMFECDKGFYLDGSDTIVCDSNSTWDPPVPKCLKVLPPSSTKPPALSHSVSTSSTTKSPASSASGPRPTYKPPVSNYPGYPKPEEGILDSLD

T2: cynoCD46-His (cynomolgus, UniProt A0A2K5WCL8 35-328)
T2 construct: extracellular domain; Immobilised by amine coupling on the SPR chip; not shown: His tag
T2 sequence: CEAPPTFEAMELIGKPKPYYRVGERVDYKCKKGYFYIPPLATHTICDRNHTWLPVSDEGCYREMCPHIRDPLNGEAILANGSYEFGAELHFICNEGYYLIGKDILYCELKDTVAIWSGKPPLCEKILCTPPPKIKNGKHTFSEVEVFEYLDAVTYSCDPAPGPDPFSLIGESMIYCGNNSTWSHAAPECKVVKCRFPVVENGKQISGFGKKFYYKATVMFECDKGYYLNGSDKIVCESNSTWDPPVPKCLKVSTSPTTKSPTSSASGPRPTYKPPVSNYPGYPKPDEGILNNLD

T3: recombinant cyno CD46 antigen (cynomolgus, UniProt A0A2K5WCL8 35-328)
T3 construct: extracellular domain; Plate-coated antigen of the ELISA; also called cynomolgus CD46 extracellular domain
T3 sequence: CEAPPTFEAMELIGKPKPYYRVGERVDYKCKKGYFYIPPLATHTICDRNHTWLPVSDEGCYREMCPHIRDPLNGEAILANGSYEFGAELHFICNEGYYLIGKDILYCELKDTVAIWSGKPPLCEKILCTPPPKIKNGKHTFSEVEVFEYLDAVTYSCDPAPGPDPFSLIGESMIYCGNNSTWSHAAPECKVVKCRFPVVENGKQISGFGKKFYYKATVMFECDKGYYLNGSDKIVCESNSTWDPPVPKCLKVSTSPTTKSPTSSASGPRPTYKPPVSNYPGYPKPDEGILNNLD


Tests used:
[1] = molecular target: T4, cyno CD46 expressed on 293 cells (cynomolgus); assay: FACS, 293 cells expressing cyno CD46, pH 6.0
T4 construct: whole, on cells; The construct on the cells is not described; also called HEK 293 cells expressing cyno CD46
Procedure: (§1) A similar FACS analysis was also carried out using 293 cells expressing cyno CD46. […] The EC50 values for binding to the 293 cells expressing cyno CD46 by the conditionally active anti-CD46 antibodies are summarized in Table 6.

[2] = molecular target: T4, cyno CD46 expressed on 293 cells; assay: FACS, 293 cells expressing cyno CD46, pH 7.4
Procedure: as §1

huCD46-His [3] = molecular target: T1, huCD46-His; assay: SPR, huCD46-His immobilised, antibody as analyte, pH 6.0
Procedure: (§2) Binding kinetics of anti-CD46 antibodies were measured by surface plasmon resonance on a SPR2/4 instrument (Sierra Sensors, Hamburg, Germany) and flat amine sensor chips. The SPR sensor contained four flow cells (FC1-FC4), each of which can be addressed individually or in groups. huCD46-His was immobilized in FC2, and cynoCD46-His was immobilized in FC4. No protein was immobilized in FC1 and FC3 which were used as control surfaces for FC2 and FC4, respectively.
(§3) All injections were done at a flow rate of 25 μL/min and 25° C. The sensor surface was activated with 1-ethyl-3-(3-dimethylaminopropyl)-carbodiimide (EDC) and N-hydroxysuccinimide (NHS) (200 mM/50 mM) for 480 seconds. Human CD46-His (2 μg/mL in 10 mM NaAc, pH5.0) was injected for 480s and the surface was inactivated by injecting 1M ethanolamine-HCl for 480s. cynoCD46-His was immobilized using the same conditions as described for huCD46-His, except that it was diluted into 10 mM NaAc buffer pH4.5. The control surface was activated and deactivated using the same conditions, but without injecting protein. PBST buffer (PBS pH7.4 with 0.05% TWEEN20™) was used as running buffer for the surface preparation. The running solution was switched to PBST with 30 mM sodium bicarbonate with the pH adjusted as indicated in the figures before the analyte injections. The instrument was equilibrated with the running solution for one hour before the first analyte injection.
(§4) The off-rate was measured for 360 s. The chip surface was regenerated after each cycle of interaction by injecting 6 μL of 10 mM glycine (pH 2.0). Flow cells 1 and 3 without immobilized protein were used as control surfaces for reference subtraction.

huCD46-His [4] = molecular target: T1, huCD46-His; assay: SPR, huCD46-His immobilised, antibody as analyte, pH 6.5
Procedure: as §2, §3, §4

huCD46-His [5] = molecular target: T1, huCD46-His; assay: SPR, huCD46-His immobilised, antibody as analyte, pH 7.4
Procedure: as §2, §3, §4

cynoCD46-His [6] = molecular target: T2, cynoCD46-His; assay: SPR, cynoCD46-His immobilised, antibody as analyte, pH 6.0
Procedure: as §2, §3, §4

cynoCD46-His [7] = molecular target: T2, cynoCD46-His; assay: SPR, cynoCD46-His immobilised, antibody as analyte, pH 6.5
Procedure: as §2, §3, §4

cynoCD46-His [8] = molecular target: T2, cynoCD46-His; assay: SPR, cynoCD46-His immobilised, antibody as analyte, pH 7.4
Procedure: as §2, §3, §4

[9] = molecular target: T3, recombinant cyno CD46 antigen; assay: ELISA, coated cyno CD46; EC50 at pH 7.4 over EC50 at pH 6.0
Procedure: The binding activities of conditionally active anti-CD46 antibodies to cyno CD46 were measured by ELISA and are shown in FIGS. 3-4. The EC50 values for binding to the cyno CD46 at pH 6.0 and pH 7.4 for the conditionally active anti-CD46 antibodies are summarized in Table 2.
[…] Cover with sealing film and place the plate onto a plate shaker set to 50 rpm for 60 minutes at room temperature. [0351] 6) Decant plates and tap out residual liquid on a stack of paper towels. [0352] 7) Serially dilute test articles in 3-fold dilutions starting at 3000 ng/mL in pH 6.0 or pH 7.4 ELISA incubation buffer. [0353] 8) Add 100 μL/well of diluted test articles to the plates [0354] 9) Cover with sealing film and place the plates onto a plate shaker set to 50 rpm for 60 minutes at room temperature. […] 10) Decant plates and tap out residual liquid on a stack of paper towels. [0356] 11) Wash wells three times by dispensing 200 μL of pH 6.0 or pH 7.4 ELISA wash buffer to the wells and completely aspirate the contents. [0357] 12) Dilute the HRP secondary antibody at 1:2500 in pH 6.0 or pH 7.4 ELISA incubation buffer. [0358] 13) Add 100 μL HRP secondary antibody diluted in pH 6.0 or pH 7.4 ELISA incubation buffer to each well [0359] 14) Cover with sealing film and place the plates onto a plate shaker set to 50 rpm for 60 minutes at room temperature. [0360] 15) Decant plates and tap out residual liquid on a stack of paper towels. [0361] 16) Wash wells three times by dispensing 200 μL of pH 6.0 or pH 7.4 ELISA wash buffer to the wells and completely aspirate the contents. [0362] 17) Dispense 50 μL per well of the TMB substrate solution into all wells of the plates. Incubate at room temperature for about 2 minutes 15 seconds or 2 minutes. […] 18) Add 50 μL per well of 1N HCl into all wells of the plates. Read plates at 450 nm using PerkinElmer, EnSpire 2300 Multilabel Reader.

[10] = molecular target: T4, cyno CD46 expressed on 293 cells; assay: FACS, 293 cells expressing cyno CD46; EC50 at pH 7.4 over EC50 at pH 6.0
Procedure: as §1

| Binder | EC50 [1] [µg/mL] | EC50 [2] [µg/mL] | Kd (huCD46-His [3]) [nM] | koff (huCD46-His [3]) [s⁻¹] | kon (huCD46-His [3]) [M⁻¹ s⁻¹] | Kd (huCD46-His [4]) [nM] | koff (huCD46-His [4]) [s⁻¹] | kon (huCD46-His [4]) [M⁻¹ s⁻¹] | Kd (huCD46-His [5]) [nM] | koff (huCD46-His [5]) [s⁻¹] | kon (huCD46-His [5]) [M⁻¹ s⁻¹] | Kd (cynoCD46-His [6]) [nM] | koff (cynoCD46-His [6]) [s⁻¹] | kon (cynoCD46-His [6]) [M⁻¹ s⁻¹] | Kd (cynoCD46-His [7]) [nM] | koff (cynoCD46-His [7]) [s⁻¹] | kon (cynoCD46-His [7]) [M⁻¹ s⁻¹] | Kd (cynoCD46-His [8]) [nM] | koff (cynoCD46-His [8]) [s⁻¹] | kon (cynoCD46-His [8]) [M⁻¹ s⁻¹] | further results |
| --- | --- | --- | --- | --- | --- | --- | --- | --- | --- | --- | --- | --- | --- | --- | --- | --- | --- | --- | --- | --- | --- |
| BAP133-2-03-03-SL (antibody, V domains shown, the killing assays used the ADC form; also called BAP133-02-03-03-SL; CPE hit BAP133-2-03-03-SL) VH: EVQLVESGGGLVQPGGSLRLSCAASGGSVSSYDISWIRQSPSRGLEWLGVIWTDGGTNYNSAFMSRFTISRDDSKNTAYLQMNSLKTEDTAVYYCERVYDGYPWFAYWGQGTLVTVSS VL: AIQLTQSPSSLSASVGDRVTITCRASQGISNYLNWYLQKPGQSPQLLIYYTSSLHSGVPDRFSGSGSGTDFTLKISRVEAEDVGVYYCQQYIKLPWTFGQGTKVEIK | 0.104 | 1.15 | 2.36 | 0.000915 | 388000 | 1.29 | 0.000736 | 571000 | 0.89 | 0.000778 | 874000 | 2.55 | 0.00255 | 1e+06 | 2.33 | 0.00198 | 849000 | 5.47 | 0.00242 | 442000 | ratio (ph 7.4/pH 6.0) [9]: 11; Ratio (pH 7.4/6.0) [10]: 11 |
| BA-133-04-01 (antibody, V domains shown, also called CPE hit BA133-04-01) VH: EVQLVESGGGLVQPGGSLRLSCAASGGSVSSYDISWIRQSPSRGLEWLGVIWTDGGTNYNSAFMSRFTISRDDSKNTAYLQMNSLKTEDTAVYYCERVYDGYPWFAYWGQGTLVTVSS VL: AIQLTQSPSSLSASVGDRVTITCRASQWISNYLNWYLQKPGQSPQLLIYYTSSLHSGVPDRFSGSGSGTDFTLKISRVEAEDVGVYYCQQYIKLPWTFGQGTKVEIK | 0.114 | 0.958 | 0.991 | 0.00113 | 1.14e+06 | 1.77 | 0.00123 | 696000 | 3.99 | 0.00154 | 385000 | 0.465 | 0.000757 | 1.63e+06 | 0.558 | 0.000662 | 1.19e+06 | 1.29 | 0.000893 | 690000 | ratio (ph 7.4/pH 6.0) [9]: 9.2; Ratio (pH 7.4/6.0) [10]: 8.4 |
| BA-133-04-03 (antibody, V domains shown, also called CPE hit BA133-04-03) VH: EVQLVESGGGLVQPGGSLRLSCAASGGSVSSYDISWIRQSPSRGLEWLGVIWTDGGTNYNSAFMSRFTISRDDSKNTAYLQMNSLKTEDTAVYYCERVYDGYPWFAYWGQGTLVTVSS VL: AIQLTQSPSSLSASVGDRVTITCRASQGISNYLNWYLQKPGQSPQLLIYYTSSLFSGVPDRFSGSGSGTDFTLKISRVEAEDVGVYYCQQYIKLPWTFGQGTKVEIK | 0.0411 | 0.33 | 1.52 | 0.00179 | 1.18e+06 | 2.07 | 0.00195 | 941000 | 4.8 | 0.00249 | 519000 | 0.514 | 0.00143 | 2.79e+06 | 0.624 | 0.00142 | 2.28e+06 | 1.26 | 0.00153 | 1.21e+06 | ratio (ph 7.4/pH 6.0) [9]: 7.14; Ratio (pH 7.4/6.0) [10]: 8 |
| BA-133-04-02 (antibody, V domains shown, also called CPE hit BA133-04-02) VH: EVQLVESGGGLVQPGGSLRLSCAASGGSVSSYDISWIRQSPSRGLEWLGVIWTDGGTNYNSAFMSRFTISRDDSKNTAYLQMNSLKTEDTAVYYCERVYDGYPWFAYWGQGTLVTVSS VL: AIQLTQSPSSLSASVGDRVTITCRASQGIANYLNWYLQKPGQSPQLLIYYTSSLHSGVPDRFSGSGSGTDFTLKISRVEAEDVGVYYCQQYIKLPWTFGQGTKVEIK | 0.132 | 1.37 | 2.33 | 0.00143 | 611000 | 2.31 | 0.00127 | 547000 | 4.17 | 0.00174 | 417000 | 0.519 | 0.000835 | 1.61e+06 | 0.683 | 0.000943 | 1.38e+06 | 1.06 | 0.000904 | 852000 | ratio (ph 7.4/pH 6.0) [9]: 9; Ratio (pH 7.4/6.0) [10]: 10.4 |
| Benchmark (BM) BA-133-00-01 (antibody, V domains shown, the killing assays used the ADC form; Conjugation site and payload are not described; also called BM (bench mark)) VH: QVQLQESGPGLVKPSETLSLTCTVSGGSVSSYDISWIRQPPGKGLEWIGVIWTDGGTNYNSAFMSRVTISVDTSKNQFSLKLSSVTAADTAVYYCARVYDGYPWFAYWGQGTLVTVSS VL: DIQMTQSPSSLSASVGDRVTITCRASQGISNYLNWYQQKPGKAPKLLIYYTSSLHSGVPSRFSGSGSGTDFTLTISSLQPEDFATYYCQQYIKLPWTFGGGTKLEIKR | 0.0336 | 0.0493 | 2.32 | 0.00158 | 682000 | 2.15 | 0.00133 | 621000 | 2.13 | 0.00119 | 555000 | 0.795 | 0.00115 | 1.45e+06 | 0.778 | 0.00117 | 1.51e+06 | 0.905 | 0.0011 | 1.21e+06 | ratio (ph 7.4/pH 6.0) [9]: 1.33; Ratio (pH 7.4/6.0) [10]: 1.5 |
